Molecular target: Escherichia coli β sliding clamp (Escherichia coli) (UniProt P0A988)
Chain of UniProt P0A988 (P0A988 whole entry): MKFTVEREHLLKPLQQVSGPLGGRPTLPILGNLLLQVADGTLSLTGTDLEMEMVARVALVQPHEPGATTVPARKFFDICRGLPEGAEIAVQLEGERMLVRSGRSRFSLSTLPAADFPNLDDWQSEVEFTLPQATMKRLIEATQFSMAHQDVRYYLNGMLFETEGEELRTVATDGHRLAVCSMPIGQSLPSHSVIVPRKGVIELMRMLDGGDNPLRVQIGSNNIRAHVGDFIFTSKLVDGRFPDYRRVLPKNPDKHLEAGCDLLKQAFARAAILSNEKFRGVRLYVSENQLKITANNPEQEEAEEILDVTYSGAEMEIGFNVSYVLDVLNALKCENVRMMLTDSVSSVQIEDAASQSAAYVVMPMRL

Acidiphilium IS1634 transposase, wild type (enzyme)
papillae in the in vivo papillation assay of transposition in E. coli DH5α (quantification for 8 colonies): 3.15
